Data: US20120171723A1

Target: human zFGF5 (FGF homolog polypeptide) (human) (UniProt O76093)
Experiment: cell-based or functional assay

Chain of human zFGF5 (FGF homolog polypeptide) (human) (O76093 28-207): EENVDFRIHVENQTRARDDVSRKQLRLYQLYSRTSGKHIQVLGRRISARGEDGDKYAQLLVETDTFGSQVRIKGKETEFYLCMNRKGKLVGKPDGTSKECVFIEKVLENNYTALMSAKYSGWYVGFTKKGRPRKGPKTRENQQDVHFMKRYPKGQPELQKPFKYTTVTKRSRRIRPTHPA

Row | Substance | Cell Proliferation (percent of control) at 0 fold-excess of soluble receptor (percent of control) | Cell Proliferation (percent of control) at 0.8 fold-excess of soluble receptor (percent of control) | Cell Proliferation (percent of control) at 1.6 fold-excess of soluble receptor (percent of control) | Cell Proliferation (percent of control) at 3.2 fold-excess of soluble receptor (percent of control) | Cell Proliferation (percent of control) at 6.3 fold-excess of soluble receptor (percent of control) | Cell Proliferation (percent of control) at 12.5 fold-excess of soluble receptor (percent of control) | Cell Proliferation (percent of control) at 25 fold-excess of soluble receptor (percent of control) | Cell Proliferation (percent of control) at 50 fold-excess of soluble receptor (percent of control) | Cell Proliferation (percent of control) at 100 fold-excess of soluble receptor (percent of control) | Cell Proliferation (percent of control) at 62.5 fold-excess of soluble receptor (percent of control) | Cell Proliferation (percent of control) at 125 fold-excess of soluble receptor (percent of control) | Cell Proliferation (percent of control) at 250 fold-excess of soluble receptor (percent of control) | Cell Proliferation (percent of control) at 500 fold-excess of soluble receptor (percent of control) | Cell Proliferation (percent of control) at 1000 fold-excess of soluble receptor (percent of control)
1 | FGFR3α-IIIc/Fc soluble receptor (Fc fusion) | 100 | 85 | 66 | 37 | 5 | 1 | 0.2 | 0 | 0 |  |  |  |  | 
2 | FGFR2α-IIIb/Fc soluble receptor (from UniProt P21802 22-378) (Fc fusion) | 100 |  |  |  |  |  |  |  |  | 101 | 90 | 91 | 101 | 99
